Literature values, collected in paper PMC10357296.

Target: IL-18 (Homo sapiens) (UniProt Q14116)
Sequence (Q14116 37-193): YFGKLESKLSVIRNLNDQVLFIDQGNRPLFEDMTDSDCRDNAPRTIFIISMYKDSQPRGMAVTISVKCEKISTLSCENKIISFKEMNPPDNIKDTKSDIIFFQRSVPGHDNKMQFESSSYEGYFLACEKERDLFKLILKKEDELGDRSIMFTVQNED

Chain of IL-18BP (O95998 31-194): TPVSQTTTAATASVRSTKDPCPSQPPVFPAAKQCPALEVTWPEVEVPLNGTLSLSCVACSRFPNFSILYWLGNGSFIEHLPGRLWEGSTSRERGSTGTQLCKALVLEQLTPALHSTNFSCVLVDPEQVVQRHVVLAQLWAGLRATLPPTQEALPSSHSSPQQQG

Substance: IL-18BP (from UniProt O95998)
- Kd: < 1 nM
